Here are results for five molecules from paper PMC7469494 (Autophagy, 2019).

B1: Vac8[40–515] (domain or fragment, S. cerevisiae, UniProt P39968 40-515, looked up)
chain: QLDFYSGGPLKALTTLVYSDNLNLQRSAALAFAEITEKYVRQVSREVLEPILILLQSQDPQIQVAACAALGNLAVNNENKLLIVEMGGLEPLINQMMGDNVEVQCNAVGCITNLATRDDNKHKIATSGALIPLTKLAKSKHIRVQRNATGALLNMTHSEENRKELVNAGAVPVLVSLLSSTDPDVQYYCTTALSNIAVDEANRKKLAQTEPRLVSKLVSLMDSPSSRVKCQATLALRNLASDTSYQLEIVRAGGLPHLVKLIQSDSIPLVLASVACIRNISIHPLNEGLIVDAGFLKPLVRLLDYKDSEEIQCHAVSTLRNLAASSEKNRKEFFESGAVEKCKELALDSPVSVQSEISACFAILALADVSKLDLLEANILDALIPMTFSQNQEVSGNAAAALANLCSRVNNYTKIIEAWDRPNEGIRGFLIRFLKSDYATFEHIALWTILQLLESHNDKVEDLVKNDDDIINGVRK
B2: Vac8[40–515]^N62R (domain or fragment, S. cerevisiae, UniProt P39968 40-515, looked up)
chain: QLDFYSGGPLKALTTLVYSDNLRLQRSAALAFAEITEKYVRQVSREVLEPILILLQSQDPQIQVAACAALGNLAVNNENKLLIVEMGGLEPLINQMMGDNVEVQCNAVGCITNLATRDDNKHKIATSGALIPLTKLAKSKHIRVQRNATGALLNMTHSEENRKELVNAGAVPVLVSLLSSTDPDVQYYCTTALSNIAVDEANRKKLAQTEPRLVSKLVSLMDSPSSRVKCQATLALRNLASDTSYQLEIVRAGGLPHLVKLIQSDSIPLVLASVACIRNISIHPLNEGLIVDAGFLKPLVRLLDYKDSEEIQCHAVSTLRNLAASSEKNRKEFFESGAVEKCKELALDSPVSVQSEISACFAILALADVSKLDLLEANILDALIPMTFSQNQEVSGNAAAALANLCSRVNNYTKIIEAWDRPNEGIRGFLIRFLKSDYATFEHIALWTILQLLESHNDKVEDLVKNDDDIINGVRK
B3: Vac8[40–515]^N60R,N62R (domain or fragment, S. cerevisiae, UniProt P39968 40-515, looked up)
chain: QLDFYSGGPLKALTTLVYSDRLRLQRSAALAFAEITEKYVRQVSREVLEPILILLQSQDPQIQVAACAALGNLAVNNENKLLIVEMGGLEPLINQMMGDNVEVQCNAVGCITNLATRDDNKHKIATSGALIPLTKLAKSKHIRVQRNATGALLNMTHSEENRKELVNAGAVPVLVSLLSSTDPDVQYYCTTALSNIAVDEANRKKLAQTEPRLVSKLVSLMDSPSSRVKCQATLALRNLASDTSYQLEIVRAGGLPHLVKLIQSDSIPLVLASVACIRNISIHPLNEGLIVDAGFLKPLVRLLDYKDSEEIQCHAVSTLRNLAASSEKNRKEFFESGAVEKCKELALDSPVSVQSEISACFAILALADVSKLDLLEANILDALIPMTFSQNQEVSGNAAAALANLCSRVNNYTKIIEAWDRPNEGIRGFLIRFLKSDYATFEHIALWTILQLLESHNDKVEDLVKNDDDIINGVRK

Series [1] concerns the molecule itself. The series can be described thus: SEC. In general terms: SEC sorts molecules by how far they enter the pores of the column.
Series [2] deals with the molecule itself. As to the kind of experiment: SEC. The source holds these as a separate data set.
The series “AUC” deals with the molecule itself. The series can be described thus: AUC.
The target in the series “Vac8[40–515]” is B1. The series can be described thus: cross-linking.
In a further series the target is T1, Vac8[40–515]^A51R (S. cerevisiae, UniProt P39968 40-515, A51R).
T1 sequence (looked up): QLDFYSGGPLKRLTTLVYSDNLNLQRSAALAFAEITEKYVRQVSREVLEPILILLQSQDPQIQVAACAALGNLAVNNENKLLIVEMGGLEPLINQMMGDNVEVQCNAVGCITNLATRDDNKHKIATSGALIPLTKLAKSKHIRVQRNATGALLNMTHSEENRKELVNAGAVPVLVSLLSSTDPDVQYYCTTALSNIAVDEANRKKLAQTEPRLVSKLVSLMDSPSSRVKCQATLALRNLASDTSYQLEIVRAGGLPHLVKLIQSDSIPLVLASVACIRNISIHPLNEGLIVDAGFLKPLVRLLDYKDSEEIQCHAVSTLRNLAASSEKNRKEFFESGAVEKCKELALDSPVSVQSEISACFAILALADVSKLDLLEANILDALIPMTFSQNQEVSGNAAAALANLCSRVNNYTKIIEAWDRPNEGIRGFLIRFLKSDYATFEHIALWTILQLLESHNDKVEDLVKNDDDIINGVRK
As to the kind of experiment: cross-linking.

A further series addresses T2, Vac8[40–578] (S. cerevisiae, UniProt P39968 40-578).
T2 sequence (looked up): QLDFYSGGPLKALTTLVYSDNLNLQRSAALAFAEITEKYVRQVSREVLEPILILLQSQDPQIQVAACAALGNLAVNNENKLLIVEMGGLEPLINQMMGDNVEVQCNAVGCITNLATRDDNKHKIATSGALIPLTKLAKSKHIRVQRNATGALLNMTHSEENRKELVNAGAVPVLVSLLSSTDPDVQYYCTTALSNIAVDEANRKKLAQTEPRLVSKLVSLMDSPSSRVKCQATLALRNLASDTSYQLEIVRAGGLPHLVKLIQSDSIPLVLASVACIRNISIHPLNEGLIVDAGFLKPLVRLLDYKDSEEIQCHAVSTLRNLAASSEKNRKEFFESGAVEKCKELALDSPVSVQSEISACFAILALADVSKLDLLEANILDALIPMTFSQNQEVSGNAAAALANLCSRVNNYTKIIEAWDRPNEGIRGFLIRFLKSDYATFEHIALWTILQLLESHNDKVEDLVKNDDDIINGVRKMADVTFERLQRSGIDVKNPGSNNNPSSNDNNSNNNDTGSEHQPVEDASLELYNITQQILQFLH
The series can be described thus: SAXS.

The series “Vac8[40–515]^N60R,N62R” concerns the target B3. As to the kind of experiment: SEC.
For the series “Vac8[40–515]^N62R”, the target named is B2. The series can be described thus: SEC.

Turning to B1, the binding result in the series “SEC [1]” was “binds”.
As to B2, the binding result in “SEC [1]” was “binds”.
With B3, the binding result in “SEC [2]” is recorded as “binds”.

B4: Vac8[Δ19–33] (full-length Vac8 lacking the H1 helix, residues 19–33) (natural protein, S. cerevisiae, UniProt P39968 1-578, looked up)
chain: MGSCCSCLKDSSDEASVSYLEDKDQLDFYSGGPLKALTTLVYSDNLNLQRSAALAFAEITEKYVRQVSREVLEPILILLQSQDPQIQVAACAALGNLAVNNENKLLIVEMGGLEPLINQMMGDNVEVQCNAVGCITNLATRDDNKHKIATSGALIPLTKLAKSKHIRVQRNATGALLNMTHSEENRKELVNAGAVPVLVSLLSSTDPDVQYYCTTALSNIAVDEANRKKLAQTEPRLVSKLVSLMDSPSSRVKCQATLALRNLASDTSYQLEIVRAGGLPHLVKLIQSDSIPLVLASVACIRNISIHPLNEGLIVDAGFLKPLVRLLDYKDSEEIQCHAVSTLRNLAASSEKNRKEFFESGAVEKCKELALDSPVSVQSEISACFAILALADVSKLDLLEANILDALIPMTFSQNQEVSGNAAAALANLCSRVNNYTKIIEAWDRPNEGIRGFLIRFLKSDYATFEHIALWTILQLLESHNDKVEDLVKNDDDIINGVRKMADVTFERLQRSGIDVKNPGSNNNPSSNDNNSNNNDTGSEHQPVEDASLELYNITQQILQFLH
On to B4, for which the binding result in “AUC” is reported as “binds”.

B5: tNvj1 (Nvj1 construct comprising residues 229–321) (domain or fragment, S. cerevisiae, UniProt P38881 229-321, looked up)
chain: NREKDCSSSSEVESQSKCRKESTAEPDSLSRDTRTTSSLKSSTSFPISFKGSIDLKSLNQPSSLLHIQVSPTKSSNLDAQVNTEQAYSQPFRY
On to B5, for which the binding result in the series with Vac8[40–515], in the series with Vac8[40–515]^A51R, with Vac8[40–578], with Vac8[40–515]^N60R,N62R and with Vac8[40–515]^N62R was “binds” in each case.
